83 variants from the RNAGym collection of RNA variant scans (doi:10.1073/pnas.2313332121) can be followed below.

The labels stand for the following.
B1: TPR 5TU (parent)
chain: GGAUCUUCUCGAUCUAACAAAAAAGACAAAUCUGCCACAAAGCUUGAGAGCAUCUUCGGAUGCAGAGGCGGCAGCCUUCGGUGGCGCGAUAGCGCCAACGUUCUCAACUAUGACACGCAAAACGCGUGCUCCGUUGAAUGGAGUUUAUCAUG

Variants at the floor of the assay were thinned out.

The variants in the series derive from B1. Nature of the series: polymerase ribozyme fitness, log enrichment relative to wild type (log ratio); higher = more active; in vitro selection for triplet polymerase activity. In a few lines: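 Mutant libraries for each subunit of a heterodimeric triplet polymerase ribozyme were made by PCR and then transcribed. Each library underwent one round of in vitro selection in triplicate: annealing with a biotinylated primer, the partner subunit and triplets, frozen incubation at −7 °C, gel excision of extended constructs, streptavidin-bead capture and RT-PCR. Input and output libraries were Illumina-sequenced, and only genotypes with ≥10 input reads and ≥1 read per output were kept. Fitness is the logarithm, base 2, of genotype enrichment over wild-type enrichment, computed from inverse-variance-weighted replicate averages.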
As to G70A A97G, the “polymerase ribozyme fitness (log ratio)” value is -3.26.

Take G83U U127A: the “polymerase ribozyme fitness (log ratio)” value was -3.18.

For C14U A17C C35G G141C U151A, the “polymerase ribozyme fitness (log ratio)” value was at most -4.2. In the case of U9G C27A C96A it was at most -4.2; in that of U6A G58U U61A A66G U82C U139C G152A, at most -4.2; in that of C14U C87U C99U U101G A137C U145G, at most -4.2. Take C35U U53A: the “polymerase ribozyme fitness (log ratio)” value is -0.557.

For the variant C57A G70U C96U, the “polymerase ribozyme fitness (log ratio)” value was -2.27. Under A19U G50U C51A C96U A119G stands -3.91; under A3U G46A G50U U56A G74A G84U U130A U144C C149U, at most -4.2.

Consider G88A U144G, for which the “polymerase ribozyme fitness (log ratio)” value is -3.35. As for U7A A16U A20G G48A C57A G58U A64G C87A G92U G126A C129A A137C, the “polymerase ribozyme fitness (log ratio)” value is at most -4.2. As for C96U U101C A142C, the “polymerase ribozyme fitness (log ratio)” value was -1.82. In the case of A89U A97G U134A G141C it was -3.84; in that of A41C C95G, -0.72. Under C18G C27U A40U C51U A52C C57G G88U C105U stands at most -4.2; under A17U U101G, 0.484.

In the case of A29C A41U G81C G86C C105G A106U, the “polymerase ribozyme fitness (log ratio)” value was at most -4.2.

C114U A147C: the “polymerase ribozyme fitness (log ratio)” value is -2.83. In the case of C85G, the “polymerase ribozyme fitness (log ratio)” value was -2.05. In the case of U31G U56G C93G C96G G133C it was at most -4.2; in that of C32G A49C C118U, at most -4.2; in that of C72A A91U U145A, at most -4.2. With G59C G126A, the “polymerase ribozyme fitness (log ratio)” value came out at 0.0741. Under G124A A137G stands -1.05; under U7G A23C A24U C54G, at most -4.2; under C43U G86U, -4.15.

For G34A C87A G141A, the “polymerase ribozyme fitness (log ratio)” value was at most -4.2. In the case of G92U C93U A138C it was at most -4.2; in that of G83C G117U, -1.62; in that of C85U C125U, -0.156. For U15C C38U G86U A91U G126U U134G A142G, the “polymerase ribozyme fitness (log ratio)” value is at most -4.2.

For G48C C96U A110G, the “polymerase ribozyme fitness (log ratio)” value is at most -4.2. Consider U9C, for which the “polymerase ribozyme fitness (log ratio)” value is -1.27. In the case of A91U G140U it was at most -4.2. Under C5G U13A A29G C51U G94C C114G G140C G141C U144A stands at most -4.2; under A24U U31C G68U G70A G94U C116G U139G, at most -4.2. For G46A A97C C103G C123A G141C A147C C149A, the “polymerase ribozyme fitness (log ratio)” value was at most -4.2. In the case of A52C U77G C79U C87A C95U it was at most -4.2; in that of C95U C123A C125U, -0.165.

Take A24U A52G A106G G143A: the “polymerase ribozyme fitness (log ratio)” value was -1.81. In the case of A24C C85U A120C U146A it was at most -4.2; in that of A21C C85A U127A, at most -4.2; in that of A40C C85U C95U A98G G126U, -1.37. In the case of A21U A40U C85U G141A it was 0.05; in that of A12U G42C U61A A106U C132U, at most -4.2; in that of G59C A142C, -0.57.

As for G92C U101G G117C, the “polymerase ribozyme fitness (log ratio)” value is -1.52.

Consider A40C A41C A49C A91U, for which the “polymerase ribozyme fitness (log ratio)” value is at most -4.2. Regarding U44A U45A C51U C95A C103G, the “polymerase ribozyme fitness (log ratio)” value was at most -4.2.

Consider A41C G81U G86U U104C, for which the “polymerase ribozyme fitness (log ratio)” value was -1.73. In the case of A52C G70C C85U G94C C129A it was at most -4.2; in that of C5U A24C C79A G84A U104A A142G, at most -4.2. In the case of A3U G80U it was -0.722. In the case of U56A C85U G128U it was -2.89; in that of A37U A73G, -1.1. On to C85A U135C, for which the “polymerase ribozyme fitness (log ratio)” value is -2.15. Under U31A U135G G143C stands -3.93; under G46A U53A G83A U90A G92A U134A, at most -4.2.

As to A28G U44A G83C A147G, the “polymerase ribozyme fitness (log ratio)” value is at most -4.2. A24C U53A U55A A98U G126A C149G: the “polymerase ribozyme fitness (log ratio)” value was at most -4.2. In the case of A3G C85G it was -3.16; in that of G59C, 0.0972. Under U4G A37C C87U A122G C125A stands -3.07; under G11A A52G U53A C54A G84U G128U C132U, -4.13. Under G81A U127G stands -3.31; under A22U A26C U45A G48U U82G C87G C129G, at most -4.2; under C54G C96U C123G, -1.53.

In the case of C96U A97C, the “polymerase ribozyme fitness (log ratio)” value worked out at 0.0607.

Regarding A12C A24G C85U C95U A120G, the “polymerase ribozyme fitness (log ratio)” value was at most -4.2. In the case of A52U A73U G92U it was -3.66. Under C5U U55A stands 0.322.

With A52C A73G C85A, the “polymerase ribozyme fitness (log ratio)” value was -3.88. On to A3U C35U C54A C85G, for which the “polymerase ribozyme fitness (log ratio)” value was at most -4.2. In the case of C85G C96U it was -2.26; in that of A12U A19C C95U C105A, -1.03. In the case of C14G A40G A41C C54U C85G C99U it was at most -4.2; in that of C5G A21U A49G C93A A137U, at most -4.2. In the case of U15G A52C C96U U101G C129A it was at most -4.2. As for A30U U144A, the “polymerase ribozyme fitness (log ratio)” value was -3.67.

With C5A G62C G67C G94A A106U, the “polymerase ribozyme fitness (log ratio)” value is at most -4.2. Under A21U A24U A64C U101G A110G A138C U145A stands at most -4.2; under A23U U53A C96A C114G G143A U146G, at most -4.2.
